The term Kd denotes the free concentration of one partner at which half of the binding sites on the other are occupied at equilibrium, for simple one-to-one binding.

The results in this text go back to patent US20130288373A1 (published 2013).

Test [1] deals with T1, Flt3D1-D4, recombinant human Flt3 ectodomain variant (residues 27-434) with C-terminal hexahistidine tag (human, UniProt P36888 27-434, N-linked glycosylation (glycosylated protein from HEK293 cells)).
T1 construct: Secreted from HEK293T or HEK293S GnTI-/- cells and glycosylated; also called Flt3D14(27-434); Flt3D1-4
T1 sequence: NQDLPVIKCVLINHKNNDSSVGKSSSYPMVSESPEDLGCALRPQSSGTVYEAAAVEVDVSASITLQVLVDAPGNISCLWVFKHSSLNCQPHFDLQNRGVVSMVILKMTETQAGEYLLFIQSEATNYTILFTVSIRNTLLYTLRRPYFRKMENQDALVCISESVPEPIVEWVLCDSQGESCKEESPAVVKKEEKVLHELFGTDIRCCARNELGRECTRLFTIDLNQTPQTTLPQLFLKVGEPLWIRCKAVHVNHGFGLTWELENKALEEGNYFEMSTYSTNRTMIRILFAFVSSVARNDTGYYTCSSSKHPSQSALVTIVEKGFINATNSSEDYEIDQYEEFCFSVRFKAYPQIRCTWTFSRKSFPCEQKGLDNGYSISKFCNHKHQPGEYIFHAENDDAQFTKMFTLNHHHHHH
In words: ITC at 37 C, one binding site model. As for the experimental part: (§1) Experiments were carried out using a VP-ITC MicroCalorimeter (MicroCal, MA) at 37° C., and data were analyzed using the Origin ITC analysis software package supplied by MicroCal. Purified recombinant Flt3 ectodomain constructs and FL were dialyzed overnight against 10 mM Tris-HCl, pH 7.4, at 4° C. Protein concentrations were measured spectrophotometrically at 280 nm using calculated theoretical extinction coefficients and all solutions were extensively degassed prior to use. The sample was stirred at a speed of 400 rpm throughout. The thermal titration data were fit to the “one binding site model”, and apparent molar reaction enthalpy (ΔH°), apparent entropy (ΔS°), association constant (Ka) and stoichiometry of binding (N) were determined. Several titrations were performed to evaluate reproducibility.
(§2) To quantify the thermodynamics, stoichiometry and affinity of extracellular complexes and to dissect the contribution of individual ectodomain modules to complex formation, isothermal titration calorimetry (ITC) was employed. This led to a number of consensus observations (FIG. 1D-F). […] Upon adjusting the Flt3 concentration to the approximate active receptor fraction (˜50%) estimated via the chromatographic elution profile of complex formation, a stoichiometry and thermodynamic signature consistent with that of the other two complexes is detected (FIG. 1F).

In test [2] the target is T2, Flt3D1-D5, recombinant human Flt3 ectodomain (residues 27-541) with C-terminal hexahistidine tag (human, UniProt P36888 27-541, N-linked glycosylation at 43, 100, 151, 306, 323, 351, 354, 473, 502 (at least partially occupied, by mass spectrometry)).
T2 construct: Secreted from HEK293T or HEK293S GnTI-/- cells and glycosylated; The secretion signal is not part of the mature protein; also called Flt3D15(27-541); Flt3D1-5
T2 sequence: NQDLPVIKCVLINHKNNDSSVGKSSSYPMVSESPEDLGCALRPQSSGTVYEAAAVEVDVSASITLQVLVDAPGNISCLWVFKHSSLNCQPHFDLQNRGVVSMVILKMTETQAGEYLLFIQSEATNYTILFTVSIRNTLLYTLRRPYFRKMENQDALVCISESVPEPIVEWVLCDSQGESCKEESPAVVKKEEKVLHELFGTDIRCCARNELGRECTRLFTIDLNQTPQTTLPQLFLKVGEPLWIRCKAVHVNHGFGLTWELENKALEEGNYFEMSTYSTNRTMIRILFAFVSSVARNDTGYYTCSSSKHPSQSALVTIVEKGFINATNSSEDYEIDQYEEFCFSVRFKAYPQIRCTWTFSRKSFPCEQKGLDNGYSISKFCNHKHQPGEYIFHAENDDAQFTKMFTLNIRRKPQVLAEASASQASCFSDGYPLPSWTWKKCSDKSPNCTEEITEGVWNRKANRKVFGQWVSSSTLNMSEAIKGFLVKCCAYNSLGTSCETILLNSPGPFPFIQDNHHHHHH
In words: ITC at 37 C, one binding site model. The method, then: as §1, §2

Test [3] has as its target T3, Flt3D1-D2, recombinant human Flt3 ectodomain variant (residues 27-244) with C-terminal hexahistidine tag (human, UniProt P36888 27-244, N-linked glycosylation (glycosylated protein from HEK293 cells)).
T3 construct: also called Flt3D12 (27-244)
T3 sequence: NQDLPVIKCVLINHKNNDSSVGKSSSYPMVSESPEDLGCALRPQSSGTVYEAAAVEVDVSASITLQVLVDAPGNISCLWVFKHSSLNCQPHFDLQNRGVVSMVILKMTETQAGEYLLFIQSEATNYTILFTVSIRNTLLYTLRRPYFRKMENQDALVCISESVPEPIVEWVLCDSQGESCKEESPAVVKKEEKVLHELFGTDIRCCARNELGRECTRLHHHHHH
In words: size-exclusion chromatography with FL.

The target in test [4] is T4, Flt3D1, recombinant human Flt3 ectodomain variant (residues 27-161) with C-terminal hexahistidine tag (human, UniProt P36888 27-161, N-linked glycosylation (glycosylated protein from HEK293 cells)).
T4 construct: also called Flt3D1(27-161)
T4 sequence: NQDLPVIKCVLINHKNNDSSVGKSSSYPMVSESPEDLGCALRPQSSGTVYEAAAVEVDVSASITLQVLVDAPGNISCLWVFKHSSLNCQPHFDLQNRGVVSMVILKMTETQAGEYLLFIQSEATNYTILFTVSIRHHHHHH
In words: size-exclusion chromatography with FL. In general terms: SEC sorts molecules by how far they enter the pores of the column.

The target of test [5] is T1, Flt3D1-D4, recombinant human Flt3 …. In words: ITC at 37 C, Flt3 ectodomain titrated with FL; Flt3D1-D4 ectodomain. The method, then:
as §1, §2

Test [6] has as its target T5, Flt3D1-D3, recombinant human Flt3 ectodomain variant (residues 27-346) with C-terminal hexahistidine tag (human, UniProt P36888 27-346, N-linked glycosylation (glycosylated protein from HEK293 cells)).
T5 construct: also called Flt3D13(27-346)
T5 sequence: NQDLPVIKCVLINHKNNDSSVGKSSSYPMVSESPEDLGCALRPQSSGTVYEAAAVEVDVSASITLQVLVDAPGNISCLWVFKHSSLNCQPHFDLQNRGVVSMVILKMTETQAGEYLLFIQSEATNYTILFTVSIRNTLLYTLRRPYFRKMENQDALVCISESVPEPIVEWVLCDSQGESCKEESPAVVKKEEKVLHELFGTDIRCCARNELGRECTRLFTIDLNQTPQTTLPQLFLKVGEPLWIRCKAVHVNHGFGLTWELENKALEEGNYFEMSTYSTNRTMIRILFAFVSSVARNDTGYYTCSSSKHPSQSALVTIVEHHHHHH
In words: ITC at 37 C, Flt3 ectodomain titrated with FL; Flt3D1-D3 ectodomain; about 50% active receptor fraction. The method, then: as §1, §2

For test [7], the target named is T2, Flt3D1-D5, recombinant human Flt3 …. In words: ITC at 37 C, Flt3 ectodomain titrated with FL; Flt3D1-D5 ectodomain. As for the experimental part:
as §1, §2

Test [8] deals with T5, Flt3D1-D3, recombinant human Flt3 …. In words: isothermal titration calorimetry at 37 °C, Flt3 ectodomain titrated with FL, one binding site model.
Description: (§3) (A-B) Isolation of Flt3D1-D5:FL and Flt3D1-D4:FL by size-exclusion chromatography (SEC). Also shown are Coomassie-stained SDS-PAGE strips corresponding to the peak fraction of the isolated complexes. The elution profiles of the complexes are characterized by large shifts to a single, faster migrating peak corresponding to the respective complex. (C) Size-exclusion chromatography on the Flt3D1-D3:FL mixture at the end of an ITC experiment, showing that a large amount of Flt3D1-D3 remains in the unbound form. Identical elution profiles were obtained in standard SEC experiments as well, in the presence of a large molar excess of FL. (D-F) Binding isotherms and thermodynamic parameters of FL binding to Flt3 ectodomains obtained by Isothermal Titration calorimetry (ITC). All experiments were performed by titrating recombinant Flt3 extracellular domains with FL.
as §1

The target in test [9] is T1, Flt3D1-D4, recombinant human Flt3 …. Described as above.
Description: as §3, §1

Test [10] has as its target T2, Flt3D1-D5, recombinant human Flt3 …. The description is as above.
Description: as §3, §1

B1: recombinant human FL (fms-like tyrosine kinase receptor-3 ligand) produced in E. coli (ligand)
chain: TQDCSFQHSPISSDFAVKIRELSDYLLQDYPVTVASNLQDEELCGGLWRLVLAQRWMERLKTVAGSKMQGLLERVNTEIHFVTKCAFQPPPSCLRFVQTNISRLLQETSEQLVALKPWITRQNFSRCLELQCQP
notes: Dimeric cytokine; also called Flt3 ligand; cognate ligand
Regarding B1, the “stoichiometry of binding (N)” value in test [1] and in test [2] was 0.5 throughout. Further, the binding result in test [3] and in test [4] was “no binding” in each case. The Kd in [5] worked out at 40 nM; in test [6] it was 70 nM; in test [7] it was 8.7 nM; in test [8], 74.6 nM. Moreover, the N in test [8] stood at 0.121; in [9], 0.45; in test [10], 0.42. The ΔH was -24.9 kcal/mol in [8], -55.9 kcal/mol in [9] and -51.7 kcal/mol in [10]. Further, the ΔS in [8] is -47.5 cal mol-1 K-1; in [9], -146 cal mol-1 K-1; in [10], -130 cal mol-1 K-1.
